The chains are these.
T1: SCUBE1 (UniProt Q8IWY4 24-988, limits assumed)
T1 construct: also called SCUBE1 protein
T1 sequence (looked up): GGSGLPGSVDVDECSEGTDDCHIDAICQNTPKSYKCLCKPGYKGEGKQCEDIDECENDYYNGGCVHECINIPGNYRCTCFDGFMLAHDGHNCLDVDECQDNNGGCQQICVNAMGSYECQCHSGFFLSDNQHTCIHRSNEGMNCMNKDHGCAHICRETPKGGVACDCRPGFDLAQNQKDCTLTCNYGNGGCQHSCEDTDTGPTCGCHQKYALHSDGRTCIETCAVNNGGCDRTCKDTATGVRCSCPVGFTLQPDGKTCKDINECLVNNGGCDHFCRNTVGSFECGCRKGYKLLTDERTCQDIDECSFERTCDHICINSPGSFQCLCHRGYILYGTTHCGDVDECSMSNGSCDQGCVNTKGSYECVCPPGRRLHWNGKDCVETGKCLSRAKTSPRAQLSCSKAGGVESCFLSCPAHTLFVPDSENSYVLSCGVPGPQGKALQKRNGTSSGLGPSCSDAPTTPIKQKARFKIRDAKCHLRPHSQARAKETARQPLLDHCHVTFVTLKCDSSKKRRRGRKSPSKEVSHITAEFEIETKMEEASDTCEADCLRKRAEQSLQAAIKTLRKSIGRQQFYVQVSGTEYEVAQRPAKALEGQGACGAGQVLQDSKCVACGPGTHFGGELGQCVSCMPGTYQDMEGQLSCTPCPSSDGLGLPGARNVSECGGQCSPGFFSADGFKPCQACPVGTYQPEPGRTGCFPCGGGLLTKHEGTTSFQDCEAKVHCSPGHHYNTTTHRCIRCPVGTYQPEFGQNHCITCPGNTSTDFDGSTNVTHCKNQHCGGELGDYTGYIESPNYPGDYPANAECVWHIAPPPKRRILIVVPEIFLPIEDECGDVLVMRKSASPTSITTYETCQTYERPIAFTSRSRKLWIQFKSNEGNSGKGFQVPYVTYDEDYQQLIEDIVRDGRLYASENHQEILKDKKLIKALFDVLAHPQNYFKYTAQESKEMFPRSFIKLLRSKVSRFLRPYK

T2: SCUBE3 (UniProt Q8IX30 21-993, limits assumed)
T2 construct: also called SCUBE3 protein
T2 sequence (looked up): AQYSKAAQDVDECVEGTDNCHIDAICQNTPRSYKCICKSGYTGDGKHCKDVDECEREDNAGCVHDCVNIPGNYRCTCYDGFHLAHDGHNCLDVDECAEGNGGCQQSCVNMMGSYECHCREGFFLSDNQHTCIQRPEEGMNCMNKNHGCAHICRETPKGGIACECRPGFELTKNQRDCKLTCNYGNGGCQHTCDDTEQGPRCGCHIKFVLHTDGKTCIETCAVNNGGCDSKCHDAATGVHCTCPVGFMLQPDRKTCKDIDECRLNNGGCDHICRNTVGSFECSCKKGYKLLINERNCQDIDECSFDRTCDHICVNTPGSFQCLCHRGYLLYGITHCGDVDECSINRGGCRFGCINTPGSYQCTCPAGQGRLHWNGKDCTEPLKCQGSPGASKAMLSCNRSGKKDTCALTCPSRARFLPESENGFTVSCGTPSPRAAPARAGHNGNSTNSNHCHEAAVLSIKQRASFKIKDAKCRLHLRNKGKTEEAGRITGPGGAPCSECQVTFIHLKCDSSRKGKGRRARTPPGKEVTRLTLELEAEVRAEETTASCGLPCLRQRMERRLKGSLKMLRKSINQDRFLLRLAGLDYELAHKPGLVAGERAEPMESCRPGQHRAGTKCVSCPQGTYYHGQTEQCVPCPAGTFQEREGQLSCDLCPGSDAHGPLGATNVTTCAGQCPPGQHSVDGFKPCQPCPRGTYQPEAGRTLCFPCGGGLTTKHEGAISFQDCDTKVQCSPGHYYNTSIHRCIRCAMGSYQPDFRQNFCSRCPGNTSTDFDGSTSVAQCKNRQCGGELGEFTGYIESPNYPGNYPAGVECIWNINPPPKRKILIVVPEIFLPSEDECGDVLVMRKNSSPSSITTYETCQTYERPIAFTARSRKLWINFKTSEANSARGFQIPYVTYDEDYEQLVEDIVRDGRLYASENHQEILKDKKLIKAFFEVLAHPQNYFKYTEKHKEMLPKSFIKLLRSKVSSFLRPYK

B1: recombinant VEGF165 protein (ligand, UniProt P15692-4 27-191, looked up)
chain: APMAEGGGQNHHEVVKFMDVYQRSYCHPIETLVDIFQEYPDEIEYIFKPSCVPLMRCGGCCNDEGLECVPTEESNITMQIMRIKPHQGQHIGEMSFLQHNKCECRPKKDRARQENPCGPCSERRKHLFVQDPQTCKCSCKNTDSRCKARQLELNERTCRCDKPRR
notes: Bought reagent; also called VEGF-A165
B2: anti-SCUBE2 mAb clone SP-A1 (antibody, IgG1, V domains shown)
VH: EVQLQQSGPELVKPGASVKVSCKASGYAFTSYNMYWVKQSHGKSLEWIGYIDPYNGDTNNNQKFKGKATLTVDKSSSTAYMHLNSLTSEDSAVYYCARSYRYLAWFAYWGQGTLVTVSA
VL: DIVMTQSPLSLPVSLGDQASISCRSSQSIVHSNGNTYLEWYLQKPGQSPKLLIYTVSNRFSGVPDRFSGSGSGTDFTLRISRVEAEDLGVYYCFQGSHIPYTFGGGTKLELK
notes: Mouse hybridoma mAb, IgG1
B3: anti-SCUBE2 mAb clone SP-B1 (antibody, IgG1, V domains shown)
VH: B2 VH
VL: B2 VL
notes: also called SP.B1 mAb
B4: human SCUBE2 (Signal peptide-CUB-EGF domain-containing protein 2) (receptor)
chain: RAAGPQEDVDECAQGLDDCHADALCQNTPTSYKCSCKPGYQGEGRQCEDIDECGNELNGGCVHDCLNIPGNYRCTCFDGFMLAHDGHNCLDVDECLENNGGCQHTCVNVMGSYECCCKEGFFLSDNQHTCIHRSEEGLSCMNKDHGCSHICKEAPRGSVACECRPGFELAKNQRDCILTCNHGNGGCQHSCDDTADGPECSCHPQYKMHTDGRSCLEREDTVLEVTESNTTSVVDGDKRVKRRLLMETCAVNNGGCDRTCKDTSTGVHCSCPVGFTLQLDGKTCKDIDECQTRNGGCDHFCKNIVGSFDCGCKKGFKLLTDEKSCQDVDECSLDRTCDHSCINHPGTFACACNRGYTLYGFTHCGDTNECSINNGGCQQVCVNTVGSYECQCHPGYKLHWNKKDCVEVKGLLPTSVSPRVSLHCGKSGGGDGCFLRCHSGIHLSSGLQGAYSVTCGSSSPLRNKQQKSNDSAFGDVTTIRTSVTFKLNEGKCSLKNAELFPEGLRPALPEKHSSVKESFRYVNLTCSSGKQVPGAPGRPSTPKEMFITVEFELETNQKEVTASCDLSCIVKRTEKRLRKAIRTLRKAVHREQFHLQLSGMNLDVAKKPPRTSERQAESCGVGQGHAENQCVSCRAGTYYDGARERCILCPNGTFQNEEGQMTCEPCPRPGNSGALKTPEAWNMSECGGLCQPGEYSADGFAPCQLCALGTFQPEAGRTSCFPCGGGLATKHQGATSFQDCETRVQCSPGHFYNTTTHRCIRCPVGTYQPEFGKNNCVSCPGNTTTDFDGSTNITQCKNRRCGGELGDFTGYIESPNYPGNYPANTECTWTINPPPKRRILIVVPEIFLPIEDDCGDYLVMRKTSSSNSVTTYETCQTYERPIAFTSRSKKLWIQFKSNEGNSARGFQVPYVTYDEDYQELIEDIVRDGRLYASENHQEILKDKKLIKALFDVLAHPQNYFKYTAQESREMFPRSFIRLLRSKVSRFLRPYK
notes: Signal peptide a.a; 1-37 and mature protein a.a; also GST.SCUBE2-CUB); also called FLAG.SCUBE2-FL; FLAG-tagged SCUBE2
B5: anti-SCUBE2 mAb clone EGF-C3 (antibody, IgG2a, V domains shown)
VH: EVKLVESGGGLVQPGGSRKLSCVASGFTISSFGMHWVRQAPERGLEWVAYISSGSNTIYYADTVKGRFTISRDNPKNTLFLQMTSLWSEDTAMYYCARSGTLDGWFTYWGRGTLVTVST
VL: DIVMTQPPLSLPVSLGDQASISCRSSQSILHSNGNTYLEWYLQKPGQSPKLLIYKLFNRFSGVPDRFNGSGSGTDFTLKISRAEAEDLGVYYCLQGSHVPPTFGAGTKLEIK
B6: anti-SCUBE2 mAb clone CR-#5 (antibody, IgG2b, V domains shown)
VH: EVQRVESGGDLVKPGGTLKLSCAASGFTFRNYGMSWVRQTPDKRLEWVATISSGGVYIYYPDSVKGRFTISRDNAKNTLFLQMSSLRSEDSAMYYCARDDYDGRGYFDYWGQGTTLTVSS
VL: DIVMSQSPSSLAVSAGEKVTMSCKSSQSLLNSRTRKNYLAWYQQKPGQSPKLLIYWASTRESGVPDRFTGSGSGTDFTLTISSVQAEDLAVYYCKQSYNLPTFGSGTKLDIK
B7: anti-SCUBE2 mAb clone SP-B2 (antibody, IgG1, V domains shown)
VH: EVQRVESGGGLVKPGGSLKLSCAASGFTFRNYAMSWVRQTTEKKLEWVATINDVGSYTYFPASVKGRFTVSRDNTKNTLYLQMSSLRSEDTAMYYCVTSSDTVPHHHALDYWGQGSSVTVSS
VL: DIVMTQPPASLAVSLGQRATVFCRASQNVDSRGISFMHWYQQKPGQPPKLLIYAASNLESGIPARFRGSGSGTDFTLNIHPVEEEDVATYYCQQSVEDLTFGGGTKLELK

For experiment [1], the target named is T1, SCUBE1. Description: co-immunoprecipitation.
Experiment [2] addresses T2, SCUBE3. Description: co-immunoprecipitation.
The target in experiment [3] is B4. Nature of the experiment: domain mapping (FIG. 12A); method not described.
The target of experiment [4] is T1, SCUBE1. Description: western blot of recombinant SCUBE proteins expressed in HEK-293T cells (FIG. 13A). For orientation: In western blotting, separated proteins are transferred to a membrane and probed.
Experiment [5] addresses T2, SCUBE3. Described as above.
Experiment [6] deals with EGFR (UniProt P00533 25-1210, limits assumed). Nature of the experiment: co-immunoprecipitation with anti-SCUBE2 antibody.
The target in experiment [7] is VEGFR1 (UniProt P17948 27-1338, limits assumed). Nature of the experiment: co-immunoprecipitation with anti-SCUBE2 antibody.
Chain of VEGFR1 (P17948 27-1338 limits assumed): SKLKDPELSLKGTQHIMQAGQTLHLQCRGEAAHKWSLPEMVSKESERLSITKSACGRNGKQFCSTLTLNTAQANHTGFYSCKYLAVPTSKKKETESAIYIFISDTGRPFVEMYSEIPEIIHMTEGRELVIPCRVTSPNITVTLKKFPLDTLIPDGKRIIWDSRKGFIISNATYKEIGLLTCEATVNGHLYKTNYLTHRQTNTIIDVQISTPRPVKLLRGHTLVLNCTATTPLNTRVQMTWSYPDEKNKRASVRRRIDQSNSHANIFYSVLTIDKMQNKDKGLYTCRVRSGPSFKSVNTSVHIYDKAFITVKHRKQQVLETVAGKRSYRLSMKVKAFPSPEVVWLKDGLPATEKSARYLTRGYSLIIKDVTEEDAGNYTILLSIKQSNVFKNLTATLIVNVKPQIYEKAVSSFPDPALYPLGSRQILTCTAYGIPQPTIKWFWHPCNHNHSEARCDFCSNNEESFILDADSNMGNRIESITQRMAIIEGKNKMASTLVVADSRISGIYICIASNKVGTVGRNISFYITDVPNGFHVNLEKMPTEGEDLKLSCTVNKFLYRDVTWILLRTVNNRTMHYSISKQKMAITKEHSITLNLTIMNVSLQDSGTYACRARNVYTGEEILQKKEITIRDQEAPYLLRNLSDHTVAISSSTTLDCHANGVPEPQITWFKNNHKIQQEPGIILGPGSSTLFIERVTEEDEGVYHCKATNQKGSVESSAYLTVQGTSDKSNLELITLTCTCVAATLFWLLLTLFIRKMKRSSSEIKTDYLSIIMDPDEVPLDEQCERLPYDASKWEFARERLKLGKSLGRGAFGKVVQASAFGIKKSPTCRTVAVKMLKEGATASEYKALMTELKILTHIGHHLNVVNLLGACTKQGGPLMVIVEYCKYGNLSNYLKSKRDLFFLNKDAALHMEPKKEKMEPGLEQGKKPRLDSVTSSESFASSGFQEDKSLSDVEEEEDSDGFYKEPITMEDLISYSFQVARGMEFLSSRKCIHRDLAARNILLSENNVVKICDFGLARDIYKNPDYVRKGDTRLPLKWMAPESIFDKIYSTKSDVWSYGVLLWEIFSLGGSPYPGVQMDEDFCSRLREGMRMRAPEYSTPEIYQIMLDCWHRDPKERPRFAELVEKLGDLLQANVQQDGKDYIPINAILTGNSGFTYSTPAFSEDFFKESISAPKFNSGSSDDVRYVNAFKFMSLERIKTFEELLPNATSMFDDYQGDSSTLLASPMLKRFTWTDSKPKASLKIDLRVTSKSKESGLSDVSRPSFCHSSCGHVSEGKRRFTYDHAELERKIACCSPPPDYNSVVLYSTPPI

Take B1: the binding result in experiment [1] and in experiment [2] was “no binding” each time.

Regarding B2, the binding result in experiment [3] is “binds”.

B3: the results for the binding result in experiment [3], in experiment [4] and in experiment [5] were “binds”, “no binding” and “no binding”, respectively.

Consider B4, for which the binding result in experiment [6] and in experiment [7] was “no binding” each time.

On to B5, for which, in experiment [3], the binding result is listed as “binds”.

For the molecule B6, in experiment [3], the binding result is “binds”.

B7: the binding result in experiment [3] is “binds”.

Values taken from patent US20190127454A1 (ACADEMIA SINICA, published 2019).
